The DeepSol protein solubility set

experiment: soluble on expression in E. coli; label from the status in PepcDB or PDB records

Row | Sequence | soluble on expression in E. coli
1 | MRKQWLGICIAAGMLAACTSDDGQQQTVSVPQPAVCNGPIVEISGADPRFEPLNATANQDYQRDGKSYKIVQDPSRFIQAGLAAIYDAEPGSNLTASGEAFDPTQLTAAHPTLPIPSYARITNLANGRMIVVRINDRGPYGNDRVISLSRAAADRLNTSNNTKVRIDPIIVAQDGSLSGPGMACTTVAKQTYALPAPPDLSGGAGTSSVSGPQGDILPVSNSTLKSEDPTGAPVTSSGFLGAPTTLAPGVLEGSEPTPAPQPVVTAPSTTPATSPAMVTPQAASQSASGNFMVQVGAVSDQARAQQYQQQLGQKFGVPGRVTQNGAVWRIQLGPFANKAEASTLQQRLQTEAQLQSFITTAQ | not soluble
2 | MMKTVLIYYPFSLAAERNSGSKLRPYEMHQAFLRWGAKEGVDVLLIAGTSAEREKQFQELRSQGKLDDVWFCYMENQTIPLWLTDPGHRSQRPFVDRDVLRYLKARNVPIGVFYRDVYWKFPDLYPLRGWKKAAMQMMYRWEERFYERYCDVIFLPSLEMGTYVAIRRPMVDLPPGGKQKPFQRFGTAKQPLNAIYVGGINNADYGLLLLLEAIRLANRRKPLVSLTVVCRKDEYERQPLAVKEELAALQVRVEHVSGEALDRLYAEMDFAFIPRRRSEYNDFSVPVKLVDYLSSGLPIVATACSAQKRLIEADGYGVICDDNPSSMAEAIAKMADMLEECRLRIAQTFMAKHSWEARVEKVKETLVGGLR | not soluble
3 | GSPREKVAMEYLQSASRVLTRSQLRDVVASSHLLQSEFMEIPMNFVDPKEIDIPRHGTKNRYKTILPNPLSRVCLRPKNITDSLSTYINANYIRGYSGKEKAFIATQGPMINTVNDFWQMVWQEDSPVIVMITKLKEKNEKCVLYWPEKRGIYGKVEVLVTGVTECDNYTIRNLVLKQGSHTQHVKHYWYTSWPDHKTPDSAQPLLQLMLDVEEDRLASEGRGPVVVHCSAGIGRTGCFIATSIGCQQLKEEGVVDALSIVCQLRVDRGGMVQTSEQYEFVHHALCLFESRLSPETV | soluble
4 | MGCVPRIEFGCSSQSLTLSWNLRAWNLCRLNTISHFQKLPYPLVASTRKHYKNSLLLKRFLVGVGTEESSLSEDLLDESLSRPLTSDELKSLLIDTERSKLVKKLSEANQQNRFLKRQEHEITNIKTELALMELEVQALVKLAEEIANLGIPQGSRKISGKYIQSHLLSRLDAVQKKMKEQIKGVEAAQSKEVHVFWIGMAESVQVMGSFDGWSQREDLSPEYSALFTKFSTTLFLRPGRYEMKFLVDGEWQISPEFPTSGEGLMENNVLVVE | soluble
5 | MNQYPDFDQKLYDDLRRGKEYAFAAVFDRYHRLLYTIAYRFLKSEEEAEDAVQYLFMKLWEQRETFSFESGIRSLLFTILKNYILNELRHRNLVFEKLYEMAQQVNDEDEDAFLTRFEHGELRKSLRVAIDKLPPQKQKICLLKIEYGLSNQEIADRMGITVPTVKSHYTQAIKALRNAIESLIMWFPVIWIYLID | not soluble
6 | MGSDKIHHHHHHMIIDAHIHCSGDEKVDDVLQALDQAQVDKAVVLAPFLSGPYSMHDSASLRSANQYLSRLIGHHTDRLIGFAVINPSLEGACQDLVSAHELGLHGLKMVPAGWYPYDDCARDVYETAARLKIPILFHSGIFIDGKSGRFCRPSFYEAIRDYPDLRVTLAHLGWPWSDEANAVGLIDLINGVPPDNSQFRFDISFGAPPVYRLEVLRKAIDVLTPDLLQFGSDVFLPCSADLIKSRIDEVLMLLERLEVDKSSRDRIMGGTAAAWLGIN | not soluble
7 | MRYEEPVFRPPSEAFSLIVQATIGCSWNRCTFCGMYKMKKFRVRDIEEVKEDFRLAKEIYGDVRRVFLADGNALAADTDYLLEIADYANKLFNLERISCYATPQDILEKSKEELKEIRNAGIKLLYVGIESGDDEILERIRKGVSSNEIAEACMKAHECGFELSVTVLTGIGGKERSYKNARNTARLLNRISPKYTGVLTYIPVPNTPLYVKIKRGEFLLPNPLENLLELRWMVERIEARTIFRCNHASNYLPLKGTLPEDREKLLKAIDYAIAHPEVLKPEWLRGL | not soluble
8 | MSVESSNQTTSLSSYLLKCAFSFGTAPPSLSPPSSTGSYEEADFSRFVQQNETGHKLTSYQSLANRDPCTIPDELHQEMKSLKKKEEAFKTSLCGFHRRGQKCAYGEKCKFAHSVHELRFPQTKRNHRNYKTVLCNNFSTTGHCKYGIRCQFIHRSMDSTSSNQSNETENITIDLNVQSDVFRAFALDSTSSLPNWHCSALLH | not soluble
9 | PDFTPQKFKEKTAEQLRVLQASFLNSSVLTDEELNRLRAQTKLTRREIDAWFTEKKKSKALKEEKMEIDESNAGSS | soluble
10 | GMSGDSEVGTEAGLTLGGDGILRLTWPRGAAITAADAERAMLRVNQLCGDDRHPMLVDMATTADVSRGARAVFGRPCQASRIALLGSSPVDRVLANFFLGINAVPCPTKFFTSERDALTWLALT | soluble
11 | MGSDKIHHHHHHMEQATRTIYSEYAAYPETQGIIAVEKRQPRDSLTDQFDVLLLVITRDPSVEWTVKHYRLNTLRVSLHLVHEQVLSRWLILNANRRAVHWVSEGTIIFERNDYLTDLKKQLRNFPETERCLQMSLSFAKLLRRFQDGRNLFSRGNYYDAYTHVHHALHHLARLSVLEKGAHPEVVVWEQARLDDPDVYKLYEQLLLSEETLEQRIHLALIGLEHLLQSKVLSGGKYLFEVMRERDRPWTMHELMEESRLTELKVDLGSLVDFFIRKGLIRISYQRTKGLGVELVTYEPVV | not soluble
12 | MLFDSHAHYDNKRFDEDRFEVIKKAYDSGVSYILNAAADMASSLETVSLTRKFDFIYGAVGVHPHEVAKMSDDDIEKLKDFAKEEKIVAIGEIGLDYYYDFSPREQQKLWFARQINLAKELNLPIIVHDRDAHKDVLDIVKAEQAKDVGGVFHCYSGSVEMLKDVLENNFYISVGGTLTFKNAKRVVEVVERVPLDRLLIETDCPYLTPEPHRGKRNDSSYVRLVAEKIAKIRGMSFEEVAEITTNNAKRLFGIK | not soluble
13 | MSTKPPIERIMYIQMRTSLEMFRSDLVDLEALANAAKEALEQLPYIPKEPCGKGEDDPLSGPESALRTGRLCGLVCCTATAAENALSTCSKLIDWAYANEPDGVDDAVLADDDDDDDDDDEGGGNGANGGGGTNGGGDGSNGSGNGSPPDGGGVGAAPSPGRGELAETRPSRSGVALDLTPAPAPAGTPVA | not soluble
14 | MSLTSAPCPFRVNRIDLRVLPMRTRFPFRYGIASLVALPHLFVTVELEVNGQSVIGRTSEGLPPKWFTKDPGTPNELEVAGMLAVIQNAVRLATLHGREPVTWYPLVRQLAAEQKLWASRHDHPPLLWNLGISLMERALLDALCQAWQEPLHAVLRGPALGIRWSELHPSLADDAVPPFLADPPASQLALRHTIGLADPLTAADIPSGEEVNDGLPHTLDDCIRAYGLRYFKIKLSGNLEADRHRLTSVASVIRQHASPDFSATLDGNENFQDLTAFREWFEALNSDPGLKDFMPHVLWIEQPLHRDSALNPELFDAFRNWPEAPRLIIDESDGESGALQTALELGYSGGSHKNCKGILKGLANAATLHAFRAAHPERDFILSGEDLANVGPIPLTQDLAMQALLGIPHVERNGHHYFRGLSMYPDGIGVSAATLAAHPDLYHQLPDGLATLNIREGFIAIDSVNQAPFGTPVAPPVDQLPTVKEWILQGGLGALEGEGHHHHHH | soluble
15 | MSLQCDDCKTKLMPLVAHEVDHIDNRRDVAGDLDDSPDNLRAVNRDCHRRITMRQIAEAGAVGTMAPVWMPITQKPLTVVVGPPSAGKSTWVKAAAKASDLVIDLDILAPTVIGKPMWIADSRERSLVIRERNSLVAEYMRGKTAHPHCFLIDTAGSFKRRKFWLDRGADVVLLDTDKDICRARIRQCSARPESTRAGRLAAVDRWEEGHHHHHH | not soluble
16 | NNELSPVALRQMSCAAGTTQTACTDDNALAYYNNSKGGRFVLALLSDHQDLKWARFPKSDGTGTIYTELEPPCRFVTDTPKGPKVKYLYFIKGLNNLNRGMVLESLAATVRLQLEHHHHHH | soluble
17 | MDKLIIGGIEIKNRLFVGSGKYPSNEIIKDVLEGSGSQVITLALRRVDLDNKEEDILQNIPKDVILLPNTSGATNAEEAIRIARIARAMGCGNWIKIEVISDSKYLLPDNEETIKATKVLADEGFIVLPYMCPDIYAGRRLIEAGAAAVMPLGAPIGSNRGLKTKELIQIMIDELDIPIIVDAGIGKPSQAMEAMEMGAAACLVNTAIASSEDPINMARAFKVAVEGGRLAYEAKMGRESKFGNASSPLTGFLDLEHHHHHH | not soluble
